Source: US9555076B2, “Neuregulin based methods and compositions for treating cardiovascular diseases” (Zensun (Shanghai) Science & Technology, Co., Ltd., priority 2002, dated 2017)
Marks after values point to notes of the source that are not given here.

System: acute myocardial injury caused by viral (Coxsackie B3) infection in mice
Assay: Survival of mice infected with Coxsackie B3 virus
Format: in vivo, BALB/C mice
Details: mice n = 20
Description: 0.2 ml of 100×TCID50 CVB3 provided by Zhong Shan Hospital affiliated to Fudan University was injected intra-abdominally and established myocarditis model. Within the following week, the mouse manifested pilo-erection, depilation, emaciation, dullness and death, about half of the tested animals died at the 8th day.
Intravenous injection of the testing drug into the tail vein was carried out the same day of intra-abdominal viral infection in mice, the injection was performed for consecutive 5 days, animal survival rate was monitored, after completion of the experiment, echocardiograph, myocardial pathologic examination, serum troponin determination were carried out.
The death status of model animals in various testing drug group was monitored.
• Normal mice control group, model group and testing drug group were set up; • Normal mice control group (n=10); • Model group (n=20): Prepared buffer solution was injected; • Testing drug group (n=20): […] courses with 20 animals assigned for each group; • Placebo control group (n=20): Intra-abdominal injection of non-CVB3 freeze-thaw cellular supernatant, 0.2 ml/animal. 10.2 Dosage Set Up, Preparation of Testing Drug, Route of Drug Administration, Times of Drug Administration, Concentration and Volume of the Testing Drug • rhNRG-1β was diluted with preparation buffer solution (10 mM PB, 0.2% human serum albumin, 5% mannitol to needed concentration; • Three drug administration groups were set up, intravenous injection for consecutive 3-day, 5-day and 7-day, drug volume for each dose was 0.2 ml/animal; • Drug administration of the model group was intravenous injection into the tail vein of mice, once every day (qd), for consecutive 7 days, drug volume for each dose was 0.2 ml/animal. 7.3 Method of the Experiment 7.3.1 Set Up of Acute Viral Myocariditis Animal Model in Mice

B1: rhNRG-1 β: Recombinant human neuregulin fragment of 61 amino acid (SEQ ID NO:4), 3 disulfide bonds, expressed in E. coli (protein, listed as Homo sapiens)
chain: SHLVKCAEKEKTFCVNGGECFMVKDLSNPSRYLCKCPNEFTGDRCQNYVMASFYKAEELYQ
modifications: disulfide (positions not given here)
- Numbers of survival animals (5 μg/kg (so in the source) iv qd × 5, 1st day, (I)): 20
- Numbers of survival animals (5 μg/kg (so in the source) iv qd × 5, 2nd day, (I)): 20
- Numbers of survival animals (5 μg/kg (so in the source) iv qd × 5, 3rd day, (I)): 20
- Numbers of survival animals (5 μg/kg (so in the source) iv qd × 5, 4th day, (I)): 19
- Numbers of survival animals (5 μg/kg (so in the source) iv qd × 5, 5th day, (I)): 18
- Numbers of survival animals (5 μg/kg (so in the source) iv qd × 5, 6th day, (I)): 15
- Numbers of survival animals (5 μg/kg (so in the source) iv qd × 5, 7th day, (I)): 13
- Numbers of survival animals (5 μg/kg (so in the source) iv qd × 5, killed, (I)): 10
- Numbers of survival animals (7.5 μg/kg iv qd × 5, 1st day, (II)): 20
- Numbers of survival animals (7.5 μg/kg iv qd × 5, 2nd day, (II)): 20
- Numbers of survival animals (7.5 μg/kg iv qd × 5, 3rd day, (II)): 20
- Numbers of survival animals (7.5 μg/kg iv qd × 5, 4th day, (II)): 18
- Numbers of survival animals (7.5 μg/kg iv qd × 5, 5th day, (II)): 17
- Numbers of survival animals (7.5 μg/kg iv qd × 5, 6th day, (II)): 14
- Numbers of survival animals (7.5 μg/kg iv qd × 5, 7th day, (II)): 11
- Numbers of survival animals (7.5 μg/kg iv qd × 5, killed, (II)): 10
- Numbers of survival animals (15 μg/kg iv qd × 5, 1st day, (I)): 20
- Numbers of survival animals (15 μg/kg iv qd × 5, 1st day, (II)): 20
- Numbers of survival animals (15 μg/kg iv qd × 5, 2nd day, (I)): 20
- Numbers of survival animals (15 μg/kg iv qd × 5, 2nd day, (II)): 20
- Numbers of survival animals (15 μg/kg iv qd × 5, 3rd day, (I)): 20
- Numbers of survival animals (15 μg/kg iv qd × 5, 3rd day, (II)): 20
- Numbers of survival animals (15 μg/kg iv qd × 5, 4th day, (I)): 20
- Numbers of survival animals (15 μg/kg iv qd × 5, 4th day, (II)): 19
- Numbers of survival animals (15 μg/kg iv qd × 5, 5th day, (I)): 19
- Numbers of survival animals (15 μg/kg iv qd × 5, 5th day, (II)): 18
- Numbers of survival animals (15 μg/kg iv qd × 5, 6th day, (I)): 17
- Numbers of survival animals (15 μg/kg iv qd × 5, 6th day, (II)): 16
- Numbers of survival animals (15 μg/kg iv qd × 5, 7th day, (I)): 14
- Numbers of survival animals (15 μg/kg iv qd × 5, 7th day, (II)): 13
- Numbers of survival animals (15 μg/kg iv qd × 5, killed, (I)): 13
- Numbers of survival animals (15 μg/kg iv qd × 5, killed, (II)): 13
- Number of survival animal (30 μg/kg iv qd × 3, 1st day, (I)): 20
- Number of survival animals (30 μg/kg iv qd × 3, 1st day, (II)): 20
- Number of survival animal (30 μg/kg iv qd × 3, 2nd day, (I)): 20
- Number of survival animals (30 μg/kg iv qd × 3, 2nd day, (II)): 20
- Number of survival animal (30 μg/kg iv qd × 3, 3rd day, (I)): 20
- Number of survival animals (30 μg/kg iv qd × 3, 3rd day, (II)): 20
- Number of survival animal (30 μg/kg iv qd × 3, 4th day, (I)): 19
- Number of survival animals (30 μg/kg iv qd × 3, 4th day, (II)): 20
- Number of survival animal (30 μg/kg iv qd × 3, 5th day, (I)): 18
- Number of survival animals (30 μg/kg iv qd × 3, 5th day, (II)): 19
- Number of survival animal (30 μg/kg iv qd × 3, 6th day, (I)): 16
- Number of survival animals (30 μg/kg iv qd × 3, 6th day, (II)): 16
- Number of survival animal (30 μg/kg iv qd × 3, 7th day, (I)): 14
- Number of survival animals (30 μg/kg iv qd × 3, 7th day, (II)): 15
- Number of survival animal (30 μg/kg iv qd × 3, killed, (I)): 13
- Number of survival animals (30 μg/kg iv qd × 3, killed, (II)): 15
- Numbers of survival animals (30 μg/kg iv qd × 5, 1st day, (I)): 20
- Numbers of survival animals (30 μg/kg iv qd × 5, 1st day, (II)): 20
- Number of survival animal (30 μg/kg iv qd × 5, 1st day, Example 5 (I)): 20
- Number of survival animals (30 μg/kg iv qd × 5, 1st day, Example 5 (II)): 20
- Numbers of survival animals (30 μg/kg iv qd × 5, 2nd day, (I)): 20
- Numbers of survival animals (30 μg/kg iv qd × 5, 2nd day, (II)): 20
- Number of survival animal (30 μg/kg iv qd × 5, 2nd day, Example 5 (I)): 20
- Number of survival animals (30 μg/kg iv qd × 5, 2nd day, Example 5 (II)): 20
- Numbers of survival animals (30 μg/kg iv qd × 5, 3rd day, (I)): 20
- Numbers of survival animals (30 μg/kg iv qd × 5, 3rd day, (II)): 20
- Number of survival animal (30 μg/kg iv qd × 5, 3rd day, Example 5 (I)): 20
- Number of survival animals (30 μg/kg iv qd × 5, 3rd day, Example 5 (II)): 20
- Numbers of survival animals (30 μg/kg iv qd × 5, 4th day, (I)): 20
- Numbers of survival animals (30 μg/kg iv qd × 5, 4th day, (II)): 20
- Number of survival animal (30 μg/kg iv qd × 5, 4th day, Example 5 (I)): 20
- Number of survival animals (30 μg/kg iv qd × 5, 4th day, Example 5 (II)): 20
- Numbers of survival animals (30 μg/kg iv qd × 5, 5th day, (I)): 20
- Numbers of survival animals (30 μg/kg iv qd × 5, 5th day, (II)): 19
- Number of survival animal (30 μg/kg iv qd × 5, 5th day, Example 5 (I)): 19
- Number of survival animals (30 μg/kg iv qd × 5, 5th day, Example 5 (II)): 19
- Numbers of survival animals (30 μg/kg iv qd × 5, 6th day, (I)): 18
- Numbers of survival animals (30 μg/kg iv qd × 5, 6th day, (II)): 18
- Number of survival animal (30 μg/kg iv qd × 5, 6th day, Example 5 (I)): 19
- Number of survival animals (30 μg/kg iv qd × 5, 6th day, Example 5 (II)): 19
- Numbers of survival animals (30 μg/kg iv qd × 5, 7th day, (I)): 17
- Numbers of survival animals (30 μg/kg iv qd × 5, 7th day, (II)): 17
- Number of survival animal (30 μg/kg iv qd × 5, 7th day, Example 5 (I)): 18
- Number of survival animals (30 μg/kg iv qd × 5, 7th day, Example 5 (II)): 18
- Numbers of survival animals (30 μg/kg iv qd × 5, killed, (I)): 16*
- Numbers of survival animals (30 μg/kg iv qd × 5, killed, (II)): 17*
- Number of survival animal (30 μg/kg iv qd × 5, killed, Example 5 (I)): 17*
- Number of survival animals (30 μg/kg iv qd × 5, killed, Example 5 (II)): 18*
- Number of survival animal (30 μg/kg iv qd × 7, 1st day, (I)): 20
- Number of survival animals (30 μg/kg iv qd × 7, 1st day, (II)): 20
- Number of survival animal (30 μg/kg iv qd × 7, 2nd day, (I)): 20
- Number of survival animals (30 μg/kg iv qd × 7, 2nd day, (II)): 20
- Number of survival animal (30 μg/kg iv qd × 7, 3rd day, (I)): 20
- Number of survival animals (30 μg/kg iv qd × 7, 3rd day, (II)): 20
- Number of survival animal (30 μg/kg iv qd × 7, 4th day, (I)): 20
- Number of survival animals (30 μg/kg iv qd × 7, 4th day, (II)): 20
- Number of survival animal (30 μg/kg iv qd × 7, 5th day, (I)): 20
- Number of survival animals (30 μg/kg iv qd × 7, 5th day, (II)): 20
- Number of survival animal (30 μg/kg iv qd × 7, 6th day, (I)): 19
- Number of survival animals (30 μg/kg iv qd × 7, 6th day, (II)): 19
- Number of survival animal (30 μg/kg iv qd × 7, 7th day, (I)): 19
